Publication PMC12723238, “Structural basis for T-cell intracellular antigen-1 amyloid fibril formation revealed by cryo-electron microscopy” (PNAS Nexus, 2025)

Tests used:
[1] = target: the molecule itself; assay: thioflavin T fluorescence + negative-stain TEM; fibril formation of the synthetic TFC peptide alone, 100 to 12.5 μM
[2] = target: the molecule itself; assay: thioflavin T fluorescence + negative-stain TEM; fibril formation of recombinant full-length TIA-1 from phase-separated condensates, with single-stranded DNA TC5, physiological buffer, 30 °C, up to 3 days
[3] = target: the molecule itself; assay: cryo-EM structure; twisted amyloid fibrils of TIA-1 sPLD; fibrils grown by adding sonicated seeds to a monomer solution in 0.1% trifluoroacetic acid; helical reconstruction, two protofilaments
[4] = target: the molecule itself; assay: thioflavin T fluorescence + negative-stain TEM; fibril formation of TIA-1 sPLD from phase-separated condensates, without TC5, physiological buffer, 30 °C, 3 days

Row | Protein | binding result [4] | also measured
1 | GQAWNQQGFNQTQSSAPWMGPNYGV (peptide, UniProt P31483 336-360, looked up, TIA-1, human, fibril core region, residues 336-360 (25 residues); also called TFC peptide fibrils; TFC fibrils; source: synthetic peptide) [synthesized peptide of the 25-residue TIA-1 fibril core (TFC peptide), residues 336-360] |  | binding result [1]: binds
2 | full-length human TIA-1 WT (natural protein, UniProt P31483 1-386, looked up, T-cell intracellular antigen-1 (TIA-1), human, full length, 386 residues (three RRMs followed by the PLD); also called full-length TIA-1; FL; source: recombinant) MEDEMPKTLYVGNLSRDVTEALILQLFSQIGPCKNCKMIMDTAGNDPYCFVEFHEHRHAAAALAAMNGRKIMGKEVKVNWATTPSSQKKDTSSSTVVSTQRSQDHFHVFVGDLSPEITTEDIKAAFAPFGRISDARVVKDMATGKSKGYGFVSFFNKWDAENAIQQMGGQWLGGRQIRTNWATRKPPAPKSTYESNTKQLSYDEVVNQSSPSNCTVYCGGVTSGLTEQLMRQTFSPFGQIMEIRVFPDKGYSFVRFNSHESAAHAIVSVNGTTIEGHVVKCYWGKETLDMINPVQQQNQIGYPQPYGQWGQWYGNAQQIGQYMPNGWQVPAYGMYGQAWNQQGFNQTQSSAPWMGPNYGVQPPQGQNGSMLPNQPSGYRVAGYETQ |  | binding result [2]: binds
3 | full-length human TIA-1 E384K (natural protein, UniProt P31483 1-386, looked up, TIA-1, human, full length, 386 residues, with the disease-associated missense mutation E384K; source: recombinant) MEDEMPKTLYVGNLSRDVTEALILQLFSQIGPCKNCKMIMDTAGNDPYCFVEFHEHRHAAAALAAMNGRKIMGKEVKVNWATTPSSQKKDTSSSTVVSTQRSQDHFHVFVGDLSPEITTEDIKAAFAPFGRISDARVVKDMATGKSKGYGFVSFFNKWDAENAIQQMGGQWLGGRQIRTNWATRKPPAPKSTYESNTKQLSYDEVVNQSSPSNCTVYCGGVTSGLTEQLMRQTFSPFGQIMEIRVFPDKGYSFVRFNSHESAAHAIVSVNGTTIEGHVVKCYWGKETLDMINPVQQQNQIGYPQPYGQWGQWYGNAQQIGQYMPNGWQVPAYGMYGQAWNQQGFNQTQSSAPWMGPNYGVQPPQGQNGSMLPNQPSGYRVAGYKTQ |  | binding result [2]: binds
4 | full-length human TIA-1 P362L (natural protein, UniProt P31483 1-386, looked up, TIA-1, human, full length, 386 residues, with the disease-associated missense mutation P362L; source: recombinant) MEDEMPKTLYVGNLSRDVTEALILQLFSQIGPCKNCKMIMDTAGNDPYCFVEFHEHRHAAAALAAMNGRKIMGKEVKVNWATTPSSQKKDTSSSTVVSTQRSQDHFHVFVGDLSPEITTEDIKAAFAPFGRISDARVVKDMATGKSKGYGFVSFFNKWDAENAIQQMGGQWLGGRQIRTNWATRKPPAPKSTYESNTKQLSYDEVVNQSSPSNCTVYCGGVTSGLTEQLMRQTFSPFGQIMEIRVFPDKGYSFVRFNSHESAAHAIVSVNGTTIEGHVVKCYWGKETLDMINPVQQQNQIGYPQPYGQWGQWYGNAQQIGQYMPNGWQVPAYGMYGQAWNQQGFNQTQSSAPWMGPNYGVQLPQGQNGSMLPNQPSGYRVAGYETQ |  | binding result [2]: binds
5 | full-length human TIA-1 A381T (natural protein, UniProt P31483 1-386, looked up, TIA-1, human, full length, 386 residues, with the disease-associated missense mutation A381T; source: recombinant) MEDEMPKTLYVGNLSRDVTEALILQLFSQIGPCKNCKMIMDTAGNDPYCFVEFHEHRHAAAALAAMNGRKIMGKEVKVNWATTPSSQKKDTSSSTVVSTQRSQDHFHVFVGDLSPEITTEDIKAAFAPFGRISDARVVKDMATGKSKGYGFVSFFNKWDAENAIQQMGGQWLGGRQIRTNWATRKPPAPKSTYESNTKQLSYDEVVNQSSPSNCTVYCGGVTSGLTEQLMRQTFSPFGQIMEIRVFPDKGYSFVRFNSHESAAHAIVSVNGTTIEGHVVKCYWGKETLDMINPVQQQNQIGYPQPYGQWGQWYGNAQQIGQYMPNGWQVPAYGMYGQAWNQQGFNQTQSSAPWMGPNYGVQPPQGQNGSMLPNQPSGYRVTGYETQ |  | binding result [2]: binds
6 | full-length human TIA-1 G355R (natural protein, UniProt P31483 1-386, looked up, TIA-1, human, full length, 386 residues, with the missense mutation G355R (found in genetic research on ALS/FTD); source: recombinant) MEDEMPKTLYVGNLSRDVTEALILQLFSQIGPCKNCKMIMDTAGNDPYCFVEFHEHRHAAAALAAMNGRKIMGKEVKVNWATTPSSQKKDTSSSTVVSTQRSQDHFHVFVGDLSPEITTEDIKAAFAPFGRISDARVVKDMATGKSKGYGFVSFFNKWDAENAIQQMGGQWLGGRQIRTNWATRKPPAPKSTYESNTKQLSYDEVVNQSSPSNCTVYCGGVTSGLTEQLMRQTFSPFGQIMEIRVFPDKGYSFVRFNSHESAAHAIVSVNGTTIEGHVVKCYWGKETLDMINPVQQQNQIGYPQPYGQWGQWYGNAQQIGQYMPNGWQVPAYGMYGQAWNQQGFNQTQSSAPWMRPNYGVQPPQGQNGSMLPNQPSGYRVAGYETQ |  | binding result [2]: binds
7 | human wild-type TIA-1 short prion-like domain (sPLD), residues 320-386 (domain or fragment, UniProt P31483 320-386, looked up, T-cell intracellular antigen-1 (TIA-1), human, 386 residues; short PLD, residues 320-386; Only residues 336-360 are resolved in the fibril structure; also called WT TIA-1 sPLD; TIA-1 sPLD) GQYMPNGWQVPAYGMYGQAWNQQGFNQTQSSAPWMGPNYGVQPPQGQNGSMLPNQPSGYRVAGYETQ |  | binding result [3]: binds
8 | human TIA-1 sPLD (residues 320-386) M354A (domain or fragment, UniProt P31483 320-386, looked up, TIA-1, human, short PLD, residues 320-386, with M354A) GQYMPNGWQVPAYGMYGQAWNQQGFNQTQSSAPWAGPNYGVQPPQGQNGSMLPNQPSGYRVAGYETQ | binds | 
9 | human TIA-1 sPLD (residues 320-386) E384K (domain or fragment, UniProt P31483 320-386, looked up, TIA-1, human, short PLD, residues 320-386, with the disease-associated missense mutation E384K) GQYMPNGWQVPAYGMYGQAWNQQGFNQTQSSAPWMGPNYGVQPPQGQNGSMLPNQPSGYRVAGYKTQ | binds | 
10 | human TIA-1 sPLD (residues 320-386) Q348L (domain or fragment, UniProt P31483 320-386, looked up, TIA-1, human, short PLD, residues 320-386, with Q348L) GQYMPNGWQVPAYGMYGQAWNQQGFNQTLSSAPWMGPNYGVQPPQGQNGSMLPNQPSGYRVAGYETQ | binds | 
11 | human TIA-1 sPLD (residues 320-386) W353A (domain or fragment, UniProt P31483 320-386, looked up, TIA-1, human, short PLD, residues 320-386, with W353A) GQYMPNGWQVPAYGMYGQAWNQQGFNQTQSSAPAMGPNYGVQPPQGQNGSMLPNQPSGYRVAGYETQ | binds | 
12 | human TIA-1 sPLD (residues 320-386) A381T (domain or fragment, UniProt P31483 320-386, looked up, TIA-1, human, short PLD, residues 320-386, with the disease-associated missense mutation A381T) GQYMPNGWQVPAYGMYGQAWNQQGFNQTQSSAPWMGPNYGVQPPQGQNGSMLPNQPSGYRVTGYETQ | binds | 
13 | human TIA-1 sPLD (residues 320-386) W339A (domain or fragment, UniProt P31483 320-386, looked up, TIA-1, human, short PLD, residues 320-386, with W339A) GQYMPNGWQVPAYGMYGQAANQQGFNQTQSSAPWMGPNYGVQPPQGQNGSMLPNQPSGYRVAGYETQ | binds | 
14 | human TIA-1 sPLD (residues 320-386) with the G355R missense mutation (domain or fragment, UniProt P31483 320-386, looked up, TIA-1, human, short PLD, residues 320-386, with G355R (found in genetic research on ALS/FTD); Only residues 334-349 are resolved in the fibril structure; also called G355R TIA-1 sPLD; TIA-1 G355R fibrils) GQYMPNGWQVPAYGMYGQAWNQQGFNQTQSSAPWMRPNYGVQPPQGQNGSMLPNQPSGYRVAGYETQ |  | binding result [3]: binds
15 | human TIA-1 sPLD (residues 320-386) P362L (domain or fragment, UniProt P31483 320-386, looked up, TIA-1, human, short PLD, residues 320-386, with the disease-associated missense mutation P362L) GQYMPNGWQVPAYGMYGQAWNQQGFNQTQSSAPWMGPNYGVQLPQGQNGSMLPNQPSGYRVAGYETQ | binds | 
16 | human TIA-1 sPLD (residues 320-386) G343P (domain or fragment, UniProt P31483 320-386, looked up, TIA-1, human, short PLD, residues 320-386, with G343P) GQYMPNGWQVPAYGMYGQAWNQQPFNQTQSSAPWMGPNYGVQPPQGQNGSMLPNQPSGYRVAGYETQ | binds | 
17 | human TIA-1 sPLD (residues 320-386) Q346L (domain or fragment, UniProt P31483 320-386, looked up, TIA-1, human, short PLD, residues 320-386, with Q346L) GQYMPNGWQVPAYGMYGQAWNQQGFNLTQSSAPWMGPNYGVQPPQGQNGSMLPNQPSGYRVAGYETQ | binds | 
